Source: paper PMC3458822, “Dimerization of DOCK2 Is Essential for DOCK2-Mediated Rac Activation and Lymphocyte Migration” (PLoS ONE, 2012)
One block for each molecule: values may come before it.

Assays:
[1] = molecular target: murine DOCK2 DHR-2 domain, wild type (murine); assay: SEC; Superdex 200 10/300 GL, 20 mM Tris-HCl pH 8.0, 250 mM NaCl, 5 mM 2-mercaptoethanol, 1 ml/minute, 20°C; size estimated against protein standards
[2] = molecular target: the molecule itself; assay: crystal structure; human DOCK2 DHR-2 in complex with Rac1, PDB 3B13

- stoichiometry N [1]: 2
Molecule: murine DOCK2 DHR-2 domain, wild type (domain or fragment)

B1: human DOCK2 DHR-2 domain (domain or fragment)
chain: SKDNRMSCTVNLLNFYKDNNREEMYIRYLYKLRDLHLDCDNYTEAAYTLLLHTWLLKWSDEQCASQVMQTGQQHPQTHRQLKETLYETIIGYFDKGKMWEEAISLCKELAEQYEMEIFDYELLSQNLIQQAKFYESIMKILRPKPDYFAVGYYGQGFPSFLRNKVFIYRGKEYERREDFQMQLMTQFPNAEKMNTTSAPGDDVKNAPGQYIQCFTVQPVLDEHPRFKNKPVPDQIINFYKSNYVQRFHYSRPVRRGTVDPENEFASMWIERTSFVTAYKLPGILRWFEVVHMSQTTISPLENAIETMSTANEKILMMINQYQSDETLPINPLSMLLNGIVDPAVMGGFAKYEKAFFTEEYVRDHPEDQDKLTHLKDLIAWQIPFLGAGIKIHEKRVSDNLRPFHDRMEECFKNLKMKVEKEYGVREM
notes: DOCK2, human, DHR-2 domain (lobes A, B and C) as crystallised with Rac1; Dimerises through lobe A in the crystal
- stoichiometry N [2]: 2
